This test concerns the target glutathione S-transferase (GST) fused to the C-terminus of SERT. In words: GST pull-down, immunoblot densitometry. Particulars: whole-cell lysates of transfected HEK-293 cells; n = 3; parent: est. 3.1; read off a plot.

“YFP-tagged human MAD2, wild type (from UniProt Q13257) R133A”: the response was 2.1 a.u.

For the origin of these results see paper PMC10561363.
